Assay results: patent US20070154954A1, “Fluorescence polarization assay” (TRANSTECH PHARMA, INC., priority 2004, published 2007)
Where two headings read alike, the source gives them in different places.

B1: unlabeled S100b (ligand)
chain: MSELEKAMVALIDVFHQYSGREGDKHKLKKSELKELINNELSHFLEEIKEQEVVDKVMETLDNDGDGECDFQEFMAFVAMVTTACHEFFEHE

Experiments:
[1] = molecular target: recombinant human sRAGE (Homo sapiens, UniProt Q15109); test: Fluorescence polarization competition assay: displacement of fluorescent amyloid beta (1-40) from sRAGE; details: read-out: EC50 for competing with fluoresceinated amyloid beta (1-40) for binding to sRAGE, unlabeled ligand, sRAGE 40 nM, fluorescent amyloid beta (1-40) 50 nM, 37° C. 1 hour, FIG. 4, mean of four measurements
Procedure: (§1) Once dissolved, the peptide is diluted with phosphate-buffered saline (calcium-free) to a concentration of 1 mg/ml and allowed to incubate at 37° C. for 24-48 hours.
The complex was incubated at 37° C. for 1 hour and then the milli-polarization (mP) value was read using an Envision plate reader (Perkin Ekmer). In some cases, depending on the purity of the human sRAGE, 0.1% bovine serum albumin (BSA) or 0.05% of the detergent TWEEN 20 may be added to the phospahte buffered saline to reduce background binding of the sRAGE to the assay well.

[2] = molecular target: T1, recombinant human sRAGE (human, UniProt Q15109 23-339); test: fluorescence polarization, displacement of fluorescent amyloid beta (1-40) from sRAGE
T1 construct: also called soluble RAGE
Procedure: as §1
The complex was incubated at 37° C. for 1 hour and then the milli-polarization (mP) value was read using an Envision plate reader (Perkin Ekmer).

Sequence of recombinant human sRAGE (Homo sapiens, UniProt Q15109) (Q15109 23-339): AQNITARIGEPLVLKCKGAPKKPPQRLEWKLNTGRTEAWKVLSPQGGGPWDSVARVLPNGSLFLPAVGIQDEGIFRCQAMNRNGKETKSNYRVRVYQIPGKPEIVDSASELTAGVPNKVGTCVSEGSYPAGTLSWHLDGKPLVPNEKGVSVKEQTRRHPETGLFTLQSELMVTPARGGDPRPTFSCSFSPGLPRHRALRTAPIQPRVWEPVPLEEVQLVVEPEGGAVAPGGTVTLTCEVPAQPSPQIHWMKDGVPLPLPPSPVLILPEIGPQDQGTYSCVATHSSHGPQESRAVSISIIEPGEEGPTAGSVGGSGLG
T1 sequence (Q15109 23-339 limits assumed): as the sequence (Q15109 23-339) above

Row | Molecule | EC50 [1] [µM] | EC50 ([1]; listed as S100b) [µM] | EC50 [2] [µM]
1 | s100b: unlabeled S100b, calgranulin-like RAGE ligand | ~0.043 | 0.043 | –
2 | B1 | – | – | 0.043
